Reference: patent publication US20130302270A1

Columns and labels:
[1] = biological target: MUC16 (CA125), membrane-bound, on tumor cells (human) (UniProt Q8WXI7); assay: flow cytometry on MUC16-positive OVCAR3 cells, anti-FLAG detection
[2] = biological target: MUC16 (CA125), membrane-bound, on tumor cells (human) (UniProt Q8WXI7)

percent of cells positive for the FLAG epitope tag [1]: 100%
Substance: soluble mesothelin (Meso), secreted FLAG-tagged form of human mesothelin (from UniProt Q13421) (ligand)
reduction of Meso-TR3 killing of OVCAR3 cells by soluble mesothelin (% cell killing) [2]: 40
